# Assay results published in patent US9446124B2, “Targeting of bone marrow neovasculature” (Philogen S.P.A., priority 2009, dated 2016).
# Entries after “also recorded” stand apart in the source; their conditions may differ.
# B1: 4A1-F16-SIP: human monoclonal mini-immunoglobulin specific to the A1 domain of tenascin-C; sequence SEQ ID NO:25 (protein)
# chain: EVQLLESGGGLVQPGGSLRLSCAASGFTFSRYGMSWVRQAPGKGLEWVSAISGSGGSTYYADSVKGRFTISRDNSKNTLYLQMNSLRAEDTAVYYCAKAHNAFDYWGQGTLVTVSRGGGSGGGSGGSSELTQDPAVSVALGQTVRITCQGDSLRSYYASWYQQKPGQAPVLVIYGKNNRPSGIPDRFSGSSSGNTASLTITGAQAEDEADYYCNSSVYTMPPVVFGGGTKLTVLSGGSGGPRAAPEVYAFATPEWPGSRDKRTLACLIQNFMPEDISVQWLHNEVQLPDARHSTTQPRKTKGSGFFVFSRLEVTRAEWEQKDEFICRAVHEAASPSQTVQRAVSVNPESSRRGGC
# modifications: Synthetic sequence 4A1-F16-SIP amino acid sequence
# B2: F8-SIP (V5L/K18R): human monoclonal mini-immunoglobulin specific to the alternatively spliced EDA domain of fibronectin; sequence SEQ ID NO:26 (protein)
# chain: EVQLLESGGGLVQPGGSLRLSCAASGFTFSLFTMSWVRQAPGKGLEWVSAISGSGGSTYYADSVKGRFTISRDNSKNTLYLQMNSLRAEDTAVYYCAKSTHLYLFDYWGQGTLVTVSSGGGGSGGGSGGGGGEIVLTQSPGTLSLSPGERATLSCRASQSVSMPFLAWYQQKPGQAPRLLIYGASSRATGIPDRFSGSGSGTDFTLTISRLEPEDFAVYYCQQMRGRPPTFGQGTKVEIKSGGSGGPRAAPEVYAFATPEWPGSRDKRTLACLIQNFMPEDISVQWLHNEVQLPDARHSTTQPRKTKGSGFFVFSRLEVTRAEWEQKDEFICRAVHEAASPSQTVQRAVSVNPESSRRGGC
# modifications: Synthetic sequence F8-SIP (V5L/K18R) amino acid sequence
# Tests used:
# [1] = test system: target tumour cells and endothelial cells; details: acts on microtubuli; literature references; cited from earlier work
# [2] = test system: blood vessels present in the bone marrow biopsies of patients with extramedullary AML; test: Immunohistochemistry of bone marrow biopsies from patients with extramedullary AML; type: binding, human; details: biotinylated antibody in SIP format, 2 μg/ml; two patients; FIG. 3
# Method: (§1) Immunohistochemistry and immunofluorescence analysis were performed on freshly frozen bone marrow biopsies of patients with acute myeloid leukaemia.
# (§2) For immunohistochemistry, biotinylated antibodies were used in small immunoprotein format (SIP) under identical conditions (2 μg/ml). Aliquots were prepared from a single batch of antibodies, frozen and used only once to ensure reproducibility of immunohistochemical stainings. Frozen tissue samples were stored at −80° C. Sections of 10 μm thickness were fixed in chilled acetone, rehydrated in TBS buffer (50 mM Tris, 100 mM NaCl, 0.001% Aprotinin, pH 7.4) and blocked with 20% fetal calf serum in TBS. The antibodies were added onto the sections in a final concentration of 2 μg/mL in 3% bovine serum albumin (BSA)/TBS solution and incubated for one hour. After washing in TBS, bound antibodies were detected with streptavidin-biotinylated alkaline phosphatase complex (Biospa, Milan, Italy) in TBS 3% BSA+2 mM MgCl2. The Fast Red substrate (Sigma) was used for detection of phosphatase activity. Sections were counterstained with Gill's hematoxylin No. 2 (Sigma) and mounted with Glycergel mounting medium (Dako, Glostrup, Denmark).
# [3] = test system: vessels of HL-60 tumour (granulocytic sarcoma) sections; test: Immunohistochemistry of HL-60 tumours from human leukaemia mouse model; type: binding; details: biotinylated SIP, 2 μg/ml, HL-60 xenograft in nude mice, FIG. 4A
# Method: as §2
# (§3) The mouse model for human leukaemia used here was previously described in Potter et al. (1984). Specifically, nude mice were xenografted with cells from the HL-60 leukaemia cell line and, after development of HL-60 tumours (granulocytic sarcomas), samples were obtained both from said tumours and from the bone marrow of the mice.
# Immunohistochemistry studies were then performed as described under “immunohistochemistry” above.
# [4] = test system: healthy bone marrow; test: Immunohistochemistry of healthy bone marrow from HL-60 xenografted mice; type: binding, nude mice; details: biotinylated SIP, 2 μg/ml; bone marrow of the same HL-60 xenografted mice; FIG. 4B
# Method: as §2
# as §3, with “mice. […]” for “mice.”
# [5] = test system: areas of bone marrow from AML patients with high blast densities; test: Multicolour immunofluorescence of AML bone marrow (co-localization with vWF); type: binding, human; details: biotinylated SIP, 2 μg/mL
# Method: Biotinylated antibodies were used in small immunoprotein format (SIP) under identical conditions (2 μg/ml). Aliquots were prepared from a single batch of antibodies, frozen and used only once to ensure reproducibility of immunohistochemical stainings.
# Sections of 10 μm thickness were fixed in chilled acetone and blocked with 20% fetal calf serum in PBS. Biotinylated F8-SIP (V5L/K18R) and 4A1-F16-SIP were added onto the sections in a final concentration of 2 μg/mL in 3% bovine serum albumin (BSA)/PBS solution and incubated for one hour. Mouse anti-human vWF (von Willebrandt factor) was used to outline endothelial cells. After washing in PBS, bound primary antibodies were detected with Streptavidin-Alexa Fluor 488 and anti-mouse IgG Alexa Fluor 594 (Invitrogen) were used as secondary antibodies. Nuclei were counterstained with DAPI and images were captured on an Axioskop 2 Mot plus microscope equipped with an AxioCam MRc camera (Zeiss). Human
# [6] = test system: blood vessels in the bone marrow of AML patients; test: Immunohistochemistry of bone marrow biopsies from AML patients; type: binding, human; details: biotinylated antibody in SIP format, 2 μg/ml, frozen 10 μm sections; FIG. 2
# Method: as §1, §2
Molecule,concentration range capable of killing target tumour cells and endothelial cells [1],staining of blood vessels in bone marrow biopsies of extramedullary AML patients [2],staining of vessels in HL-60 tumour sections [3],staining of vessels in HL-60 tumour sections ([3]; listed as 4A1-F16 SIP),staining of healthy bone marrow sections [4],co-localization with antibodies specific for von Willebrand Factor (vWF) [5],staining of blood vessels in bone marrow biopsies of AML patients [6]
CC[C@]1(O)C[C@H]2CN(CCc3c([nH]c4ccccc34)[C@@](C(=O)OC)(c3cc4c(cc3OC)N(C)[C@H]3[C@@](O)(C(=O)NN)[C@H](O)[C@]5(CC)C=CCN6CC[C@]43[C@@H]65)C2)C1 [4-desacetyl-3-vinblastine monohydrazide],picomolar concentration range,,,,,,
cemadotin,picomolar concentration range,,,,,,
B1,,strongly stained the blood vessels present in the bone marrow biopsies in both cases,strongly stained the vessels of the HL-60 tumour sections,strongly stained the vessels present in the HL-60 tumour (granulocytic sarcoma) sections,no staining was visible,excellent co-localization,strongly stained the blood vessels present in the bone marrow biopsy; also recorded: capable of staining the vast majority of blood vessels
B2,,also visible and was either similar or slightly weaker than the level of staining observed with 4A1-F16-SIP,strongly stained the vessels of the HL-60 tumour sections; also recorded: strongly stained the vessels present in the HL-60 tumour (granulocytic sarcoma) sections,,no staining was visible,,"also visible, although the level of staining was weaker than that observed with 4A1-F16-SIP; also recorded: stained a large proportion of these blood vessels but fewer than observed with the 4A1-F16-SIP antibody"
